According to US20210253725A1 (BIONTECH, published 2021):
Blank lines part the entries; values can stand above or below the binder they belong to.

Key:
[1] = target: T1, CD27 expressed on the cell surface (HT1080_CD27 cells) (human, UniProt P26842 20-260); test: cell-based or functional assay
T1 sequence (looked up): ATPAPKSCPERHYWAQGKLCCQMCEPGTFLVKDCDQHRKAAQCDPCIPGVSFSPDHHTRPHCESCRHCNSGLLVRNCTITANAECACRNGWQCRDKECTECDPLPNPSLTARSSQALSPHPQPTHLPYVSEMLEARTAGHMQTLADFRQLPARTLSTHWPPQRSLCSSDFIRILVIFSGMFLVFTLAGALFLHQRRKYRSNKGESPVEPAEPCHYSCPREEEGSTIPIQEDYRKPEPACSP

[2] = target: T2, CD27 protein (His-tagged, Sino Biological Inc. 10039-H08B1) (human, UniProt P26842 20-192); test: ELISA on coated His-tagged CD27
T2 construct: bought; coated onto ELISA plates; also called human CD27; recombinant protein; not shown: His tag
T2 sequence (looked up): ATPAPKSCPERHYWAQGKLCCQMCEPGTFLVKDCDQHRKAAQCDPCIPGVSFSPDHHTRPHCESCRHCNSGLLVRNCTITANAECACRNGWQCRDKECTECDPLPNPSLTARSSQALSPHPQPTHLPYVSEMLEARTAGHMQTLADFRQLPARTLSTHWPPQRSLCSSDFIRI

[3] = target: T1, CD27 expressed on the cell surface …; test: cellular binding assay, HT1080_CD27 cells
Also: test concentration or dose not given here.

B1: P018.S.01.A.C02 (antibody, V domains shown)
VH: QSLEESGGDLVQPGASLTLTCTASGLDFISSYMCWVRQAPGKGLEWIGCIAPGGGNTYYATWAKGRFTFSETSSTTVTLQMTSLTAADTATYFCARTYPSIWYFGLWGPGTLVTVSS
VL: DVVMTQTPASVSEPVGGTVTIKCQASQSIGSNLGWYQQKPGQPPKLLIYGASTLASGVSSRFKGSGSGTEFTLTMSDLESADAATYYCQSFYAASSAFGGGTEVVVK
notes: V regions on human Ig constant parts; also called AB27_7
IL-8, cross-linked by F(ab')2 fragment [abs. corr.] [1]: 1.48 abs. corr. | IL-8 [abs. corr.] [1]: 0.395 abs. corr. | ELISA [abs. corr.] [2]: 3.25 abs. corr. | Cellular binding assay [RFU] [3]: 324 RFU

B5: P018.S.06.A.A02 (antibody, V domains shown)
VH: QEQLVESGGGLVQPEGSLTLTCTSSGFSLNSNYYISWVRQAPGKGLEWIACIDAGSGSTWYASWVKGRFTISKTSSTTVTLQMTSLTAADTATYFCARDDIGTSYEYYFGLWGPGTLVTVSS
VL: DVVLTQTPASVSEPVGGTVTIKCQASQTISSYLAWYQQKSGQPPKLLIYSASTLASGVSSRFKGSGSGTEYTLTISDLESADAATYYCQTYYGSDSYVFGGGTEVVVK
notes: V regions on human Ig constant parts; also called AB27_95
IL-8, cross-linked by F(ab')2 fragment [abs. corr.] [1]: 1.81 abs. corr. | IL-8 [abs. corr.] [1]: 0.737 abs. corr. | ELISA [abs. corr.] [2]: 3.23 abs. corr. | Cellular binding assay [RFU] [3]: 366 RFU

B7: P018.S.01.A.C04 (antibody, V domains shown)
VH: QSLEESGGGLVTPGGTLTLTCTASGSDISTYHMGWFRQAPGKGLEYIGFINTGGTTWYASWAKGRFTVSRTSTTVDLLMTSPTTEDTATYFCARYDAGHAFFDLWGPGTLVTVSS
VL: AVVMTQTASPVSAAVGGTVTIKCQASQSIGSSYFSWYQQKPGQPPKLLIYSASTLASGVSSRFKGSGSGTEYTLTISDLESADAATYYCQGYDGDTTTAFFAFGGGTEVVVE
notes: V regions on human Ig constant parts; also called AB27_8
IL-8, cross-linked by F(ab')2 fragment [abs. corr.] [1]: 1.08 abs. corr. | IL-8 [abs. corr.] [1]: 0.383 abs. corr. | ELISA [abs. corr.] [2]: 3.24 abs. corr. | Cellular binding assay [RFU] [3]: 368 RFU

B8: P018.S.02.A.B03 (antibody, V domains shown)
VH: QSLEESGGGLVKPGGTLTLTCTASGFSLSSTYMSWVRQAPGKGLEWIGDIYTDGSTYYASWVNGRFTISKTSTTVDLKMTSLTTEDTATYFCARGAAAAYDLWGQGTLVTVSS
VL: AYDMTQTPASVSAAVGGTVTIKCQASQNIYTNLAWYQQKPGQPPKLLIYGVSNLESGVPSRFKGSGSGTQFTLTISGVQSDDAATYYCQQGYSSTNVENAFGGGTEVVVK
notes: V regions on human Ig constant parts; also called AB27_30
IL-8, cross-linked by F(ab')2 fragment [abs. corr.] [1]: 1.16 abs. corr. | IL-8 [abs. corr.] [1]: 0.12 abs. corr. | ELISA [abs. corr.] [2]: 3.25 abs. corr. | Cellular binding assay [RFU] [3]: 332 RFU

The next lines start with the values.

IL-8, cross-linked by F(ab')2 fragment [abs. corr.] [1]: 1.19 abs. corr. | IL-8 [abs. corr.] [1]: -0.16 abs. corr. | ELISA [abs. corr.] [2]: 3.25 abs. corr. | Cellular binding assay [RFU] [3]: 256 RFU
B2: P018.S.07.A.H05 (antibody, V domains shown)
VH: QSLEESGGRLVTPGTPLTLTCTASGFSLNSYYINWVRQAPGKGLEWIGFINGYDNTWYASWAKGRFTISRTSTTVDLRITSPTTEDTATYFCARDPGGASGTGRLDLWGQGTLVTVSS
VL: DIVMTQTPASVSAAVGGTVTINCQASQSISTALAWYQQKPGQRPKLLIYDASKLASGVPSRFKGNGSGTEFTLTISDLESADAATYYCQCTYYDAYDVGAFGGGTEVVVN
notes: V regions on human Ig constant parts; also called AB27_133

IL-8, cross-linked by F(ab')2 fragment [abs. corr.] [1]: 1.61 abs. corr. | IL-8 [abs. corr.] [1]: 0.519 abs. corr. | ELISA [abs. corr.] [2]: 3.23 abs. corr. | Cellular binding assay [RFU] [3]: 283 RFU
B3: P018.S.06.A.C02 (antibody, V domains shown)
VH: QSVEESGGRLVTPGTPLTLTCIVSGIDLSSNAMSWVRQAPGKGLEWIGIIGFAGITYYANWAKGRFTISKTSTTVDLKITSPTTEDTATYFCARAYGDSDGLYNLWGQGTLVTVSS
VL: AQVLTQTASSVSAAVGGTVTISCQSSESVYNNNWLGWFQQKPGQPPKLLIYLASTLASGVPSRFKGSGSGTQFTLTISDLESDDAATYYCQGGYSGNIFAFGGGTEVVVN
notes: V regions on human Ig constant parts; also called AB27_100

IL-8, cross-linked by F(ab')2 fragment [abs. corr.] [1]: 1.46 abs. corr. | IL-8 [abs. corr.] [1]: 0.455 abs. corr. | ELISA [abs. corr.] [2]: 3.25 abs. corr. | Cellular binding assay [RFU] [3]: 308 RFU
B4: P018.S.10.A.B06 (antibody, V domains shown)
VH: QSVEESGGRLVTPGTPLTLTCTVSGFSLSSSHMCWVRQAPGKGLEWIGVINIGDIAYYASWAKGRFTISKTSTTVDLKMTSLTAADTATYFCARENAYGTGWDFDLWGQGTLVTVSS
VL: AYDMTQTPASVEVAVGGTVTIKCQASESIRNALAWYQQKPGQPPKQLIYSASTLASGVPSRFKGSGSGTEFTLTISGVQSDDAATYYCQQGFSLRNVDNAFGGGTEVVVK
notes: V regions on human Ig constant parts; also called AB27_169

IL-8, cross-linked by F(ab')2 fragment [abs. corr.] [1]: 1.54 abs. corr. | IL-8 [abs. corr.] [1]: 0.099 abs. corr. | ELISA [abs. corr.] [2]: 3.27 abs. corr. | Cellular binding assay [RFU] [3]: 334 RFU
B6: P018.S.09.A.E03 (antibody, V domains shown)
VH: QSVEESGGRLVTPGTPLTLTCTASGFSLSSYYMGWVRQAPGKGLEWIGFITSGGSGSTYYASWAKGRFTISKTSTTVDLKMTSLTTEDTATYFCARYGDSFYWALDLWGQGTLVTVSS
VL: AQVLTQTPSSVSAAVGGTVTINCQSSQSVLNNDLSWYQQKPGQPPKLLIYAASTLASGVPSRFKGSGSGTQFTLTINVGQSDDAATYYCQGYFIDVNNPFGGGTEVVVK
notes: V regions on human Ig constant parts; also called AB27_154
